In patent US20240382677A1 (Regeneron, published 2024):

T1: monkey PD-1 with mFc (monkey PD-1-mFc) (monkey)
T1 construct: also called monkey PD-1 dimer; MfPD-1 dimer
T1 chain: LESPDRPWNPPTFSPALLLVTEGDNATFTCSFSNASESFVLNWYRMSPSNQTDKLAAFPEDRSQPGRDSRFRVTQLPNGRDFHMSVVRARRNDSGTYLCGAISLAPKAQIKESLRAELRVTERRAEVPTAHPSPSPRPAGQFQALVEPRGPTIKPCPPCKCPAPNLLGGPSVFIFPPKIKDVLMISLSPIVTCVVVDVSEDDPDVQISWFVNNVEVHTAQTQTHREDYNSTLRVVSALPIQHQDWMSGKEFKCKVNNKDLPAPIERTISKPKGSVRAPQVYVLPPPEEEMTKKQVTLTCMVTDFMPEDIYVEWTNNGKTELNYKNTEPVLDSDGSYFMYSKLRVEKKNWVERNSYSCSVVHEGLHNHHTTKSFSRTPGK

B1: H4xH8999P (antibody, V domains shown)
VH: QLQLQESGPGLVQPSETLSLTCTVSGDSISSTAYHWDWIRQPPGKGLEWIGTITYNGNTYFNPSLKSRVTISVDTSKNQFSLKLLSMTAAETAVFYCARHLGYNSDFFPFDFWGQGTLVTVSS
VL: not shown
notes: human IgG4 Fc with 2 or more amino acid changes (US20100331527)
B2: H4xH8992P (antibody, V domains shown)
VH: EVQLVESGGGLVQPGRSLRLSCVASGFALHDYAMHWVRQVPGKGLEWVSSISWNSGVIGYADSLKGRFTISRDNAKNSLYLQMNSLRAEDTALYYCAKGSGSYYVSWFDPWGQGTLVTVSS
VL: not shown
notes: as for B1
B3: H4xH9048P2 (antibody, V domains shown)
VH: QVQLVQSGAEVKRPGSSVKVSCKVSGVTFRNFAIIWVRQAPGQGLEWMGGIIPFFSAANYAQSFQGRVTITPDESTSTAFMELASLRSEDTAVYYCAREGERGHTYGFDYWGQGTLVTVSS
VL: not shown
B4: H1M7799N (antibody, mouse IgG1, V domains shown)
VH: EVQLVESGGGLVQPGGSLRLSCAASGFTVSNNYMSWVRQAPGKGLEWVSVIYSGGFTYYTDSVKGRFTISRHNSKNTLYLQMNSLRAEDTAVYYCARYYYDTSDYWTFFDYWGQGTLVTVSS
VL: EIVMTQSPATLSVSPGERATLSCRASQSVSSNLAWYQQKPGQAPRLLIYGASTRATGIPARFSGSGSGTEFTLTISSLQSGDFAVYYCQQYNNWPLTFGGGTKVEIN
notes: mouse IgG1 Fc; human variable regions
B5: H1M7800N (antibody, mouse IgG1, V domains shown)
VH: EVQLVESGGGLVQPGGSLRLSCAASGFTVSNNYMSWVRQAPGKGLEWVSVIYSGGFTYYTDSVKGRFTISRHNSKNTLYLQMNSLRAEDTAVYYCARYYYDTSDYWTFFDYWGQGTLVTVSS
VL: EIVMTQSPATLSVSPGERATLSCRASQSVSSNLAWYQQKPGQAPRLLIYGASTRATGIPARFSGSGSGTEFTLTISSLQSGDFAVYYCQQYNNWPLTFGGGTKVEIN
notes: as for B4
B6: H2aM7796N (antibody, mouse IgG2a, V domains shown)
VH: QVQLVESGGGVVQPGRSLRLSCAASGFTFSSYGMHWVRQAPGKGLEWVAIIWSDGDSEYNLDSVKGRFTISRDNSKNTLYLQMNSLRVEDSAVYYCARDRDLEDIWGQGTMVTVSS
VL: DIQMTQSPSSLSASVGDRVTITCRASQGIRNDLGWYQQKPGKAPKRLIYAASNLQSGVPSRFSGSGSGTEFTLTISSLQPEDFATYYCLQHNSYPLTFGGGTKVEIK
notes: mouse IgG2a Fc; human variable regions; also called H2M7796N
B7: H2aM7791N (antibody, mouse IgG2a, V domains shown)
VH: QMQLQQWGAGLLKPSETLSLTCVVYGGSLNGYYWSWIRQSPGKGLEWIGEIDHSGSTNYNPSLKNRVTMSVDTSKIQFSLKLTSVTVADTAVYYCAREGLLPFDYWGQGTLVTVSS
VL: EIVLTQSPGTLSLSPGERVTLSCRASQSVYSNYLAWYQQNPGQAPRLLIYAASNRATGIPDRFSGSGSGTDFTLTISRLEPEDFAVYYCHQYATSPWTFGQGTKVEIK
notes: mouse IgG2a Fc; human variable regions; also called H2M7791N
B8: H1M7789N (antibody, mouse IgG1, V domains shown)
VH: EVQLLESGGGLVQPGGSLRLSCSASGFTFSSYTMNWVRQAPGKGLEWVSGISDTGGNTYYTDSVKGRFTVSRDNSKNTLSLQMNSLRAEDTAVYYCAKDQGGSYPYYFHYWGQGSLVTVSS
VL: DIQMTQSPSSLSASVGDRVTITCRASQSISSYLIWYQQKPGTAPKFLIYAASSLQSGVPSRFSGCGSGTDFTLTISSLQPEDFATYYCQQSYSTPPITFGQGTRLEIK
notes: mouse IgG1 Fc; human variable regions; also called H1M7789W
B9: H2aM7794N (antibody, V domains shown)
VH: QLQLQESGPDLVKPSDTLSLTCTVSDDSISSTTYYWAWIRQPPGKGLEWIGSMSYNGNNYYNPSLKSRVAISAGTSQKQFSLKLTSVTAADTAVYHCARHLGYNGNWYPFDFWGQGILVTVSS
VL: not shown
notes: mouse IgG2a Fc; human variable regions; also called H2M7794N
B10: H4xH9037P (antibody, V domains shown)
VH: EVQLVESGGGLVQPGGSLRLSCAASGFTFDDYAMHWVRQAPGKGLEWVSGIGWSSGSIGYADSVKGRFTISRDNAKNSLYLQMDSLRPEDSALYYCAKAYTFMITLYFDYWGQGTLVTVSS
VL: not shown
B11: H4H7798N (antibody, human IgG4 S228P, kappa, V domains shown)
VH: EVQLLESGGVLVQPGGSLRLSCAASGFTFSNFGMTWVRQAPGKGLEWVSGISGGGRDTYFADSVKGRFTISRDNSKNTLYLQMNSLKGEDTAVYYCVKWGNIYFDYWGQGTLVTVSS
VL: DIQMTQSPSSLSASVGDSITITCRASLSINTFLNWYQQKPGKAPNLLIYAASSLHGGVPSRFSGSGSGTDFTLTIRTLQPEDFATYYCQQSSNTPFTFGPGTVVDFRR
notes: human IgG4 Fc; also called REGN2810; cemiplimab
B12: H2aM7798N (antibody, mouse IgG2a, V domains shown)
VH: EVQLLESGGVLVQPGGSLRLSCAASGFTFSNFGMTWVRQAPGKGLEWVSGISGGGRDTYFADSVKGRFTISRDNSKNTLYLQMNSLKGEDTAVYYCVKWGNIYFDYWGQGTLVTVSS
VL: DIQMTQSPSSLSASVGDSITITCRASLSINTFLNWYQQKPGKAPNLLIYAASSLHGGVPSRFSGSGSGTDFTLTIRTLQPEDFATYYCQQSSNTPFTFGPGTVVDFR
notes: mouse IgG2a Fc; human variable regions; also called H2M7798N
B13: H4xH9035P (antibody, V domains shown)
VH: EVQLVESGGRVVRPGGSLRLSCAASGFTFDDYGMSWVRQLPGKGLEWVAGISWNDGKTVYAESVKGRFIISRDNAKNSLHLEMNSLRAEDTALYYCARDWQYLIDRYFDFWGQGTLVTVSS
VL: not shown
B14: H2aM7788N (antibody, mouse IgG2a, V domains shown)
VH: EVQLVESGGGLVQPGGSLRLSCGASGFTFRNYDMHWVRQITGKGLEWVSAIGSAGDTYYPDSVKGRFTISRENAKNSLYLQMNSLRVGDTAVYYCTRDIHCSSTRCYGMDVWGQGTTVTVSS
VL: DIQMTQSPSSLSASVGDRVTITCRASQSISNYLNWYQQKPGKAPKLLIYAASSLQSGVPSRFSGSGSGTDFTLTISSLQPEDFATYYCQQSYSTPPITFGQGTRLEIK
notes: mouse IgG2a Fc; human variable regions; also called H2M7788N
B15: H4H9057P2 (antibody, V domains shown)
VH: EVQLVESGGGLVQSGRSLRLSCAASGFTFDDYAMHWVRQPPGKGLEWVSGINWNRGRTGYADSVKGRFTISRDNAKNSLYLQMNDLRVEDTALYYCAKAEQWLDEGYFDYWGQGTLVTVSS
VL: not shown
B16: H4xH9008P (antibody, V domains shown)
VH: EVQLVESGGGLVRPGGSLRLSCAASGFTFSTYAMAWVRQTPGKGLEGVSAIGGSGDSTYYVDSVKGRFTISRDNSKSTLFLQMNSLRAEDTAVYYCVKVRNYDGSFDIWGQGTMVTVSS
VL: not shown
notes: as for B1
B17: H4xH9045P (antibody, V domains shown)
VH: EVQLVESGGGLVQPGRSLRLSCAASGFTFDDYDMHWVRQAPGKGLEWVSGSGWNRGSLGYADSVKGRFTISRDNAKKSLYLQMNSVRVEDTALYYCAKGFVVVSAAYFDYWGQGTLVTVSS
VL: not shown
B18: H4H9068P2 (antibody, V domains shown)
VH: EVQLVESGGGLVQRGGSLRLSCAASGFSFSSYAMNWVRQAPGKGLEWVSTISDSGGSTYYADSVKGRFTISRDNSKNTLSLQMNSLRAEDTAVYYCAKDQGGSYPYYFHYWGQGTLVTVSS
VL: not shown
B19: H4H7795N2 (antibody, human IgG4 S228P, kappa, V domains shown)
VH: EVQVVESGGGLVEPGRSLRLSCKASGFTFDDYAMHWVRQTPGKALEWVSGISWSGNNIGYADSVKGRFTISKDDAKNSLYLQMNSLRPEDTALYYCTKDISITGTLDAFDVWGQGTMVTVSS
VL: DIQMTQSPISVSASVGDRVTITCRASQGISNWLAWYQQKPGIAPKLLIYSASSLQSGVPSRFRGSGSGTDFTLTIGSLQPEDFATYYCQQAHSFPLTFGGGTKVEIKR
notes: human IgG4 Fc
B20: H2aM7795N (antibody, mouse IgG2a, V domains shown)
VH: EVQVVESGGGLVEPGRSLRLSCKASGFTFDDYAMHWVRQTPGKALEWVSGINWSGNNIGYADSVKGRFTISKDDAKNSLYLQMNSLRPEDTALYYCTKDISITGTLDAFDVWGQGTMVTVSS
VL: DIQMTQSPISVSASVGDRVTITCRASQGISNWLAWYQQKPGIAPKLLIYSASSLQSGVPSRFRGSGSGTDFTLTIGSLQPEDFATYYCQQAHSFPLTFGGGTKVEIK
notes: mouse IgG2a Fc; human variable regions; also called H2M7795N

Assays:
[1] = target: T1, monkey PD-1 with mFc (monkey PD-1-mFc); assay: SPR 25C, mAb captured
Procedure: (§1) Binding association and dissociation rate constants (ka and kd, respectively), equilibrium dissociation constants and dissociation half-lives (KD and t½, respectively) for antigen binding to purified anti-PD1 antibodies were determined using a real-time surface plasmon resonance biosensor assay on a Biacore 4000 or Biacore T200 instrument. […] Experiments were performed at 25° C. and 37° C. Kinetic association (ka) and dissociation (kd) rate constants were determined by processing and fitting the data to a 1:1 binding model using Scrubber 2.0c curve fitting software. Binding dissociation equilibrium constants (KD) and dissociative half-lives (t½) were then calculated from the kinetic rate constants as: KD (M)=kd/ka and t½ (min)=[ln 2/(60*kd)].

[2] = target: T1, monkey PD-1 with mFc (monkey PD-1-mFc); assay: SPR 37C, mAb captured;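 also: Real-time binding of antigen to purified anti-PD-1 antibodies, measured by surface plasmon resonance on a Biacore 4000 or T200 instrument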
Procedure: as §1

[3] = target: T2, recombinant human PD-1 dimer expressed with a C-terminal mouse IgG2a Fc tag (hPD-1-mFc) (human); assay: BLI Octet Red 96, captured hPD-L1-hFc
T2 construct: also called human PD-1-mFc
Procedure: Inhibition studies for anti-PD-1 monoclonal antibodies expressed with a mouse Fc were performed on an Octet Red 96 instrument. […] The biosensors were washed in Octet HBST buffer in between each step of the experiment. The real-time binding responses were monitored during the entire course of the experiment and the binding response at the end of every step was recorded.

[4] = target: recombinant human PD-1 expressed with a C-terminal human IgG1 Fc tag (hPD-1-hFc) (human); assay: SPR Biacore 3000, captured hPD-L1-mFc
Chain of recombinant human PD-1 expressed with a C-terminal human IgG1 Fc tag (hPD-1-hFc) (human) (chain, as listed by the source limits assumed): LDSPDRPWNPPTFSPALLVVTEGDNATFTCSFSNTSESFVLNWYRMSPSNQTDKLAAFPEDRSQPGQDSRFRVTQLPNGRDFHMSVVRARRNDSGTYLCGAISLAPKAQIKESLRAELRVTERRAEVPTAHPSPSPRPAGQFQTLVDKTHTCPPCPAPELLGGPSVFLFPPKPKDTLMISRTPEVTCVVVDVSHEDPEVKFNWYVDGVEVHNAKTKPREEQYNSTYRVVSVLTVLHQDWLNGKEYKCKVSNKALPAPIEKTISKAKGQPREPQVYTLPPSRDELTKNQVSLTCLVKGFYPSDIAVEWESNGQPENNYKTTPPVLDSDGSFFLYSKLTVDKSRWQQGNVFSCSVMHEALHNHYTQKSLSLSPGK
Procedure: Next, inhibition studies for anti-PD-1 monoclonal antibodies expressed with human Fc were performed on a Biacore 3000 instrument. […] The real-time binding responses were monitored during the entire course of the experiment and the binding response at the end of every step was recorded.

Row | Binder | 100 nM Monkey PD-1-mFc Bound [1] [RU] | t½ [1] [min] | 100 nM Monkey PD-1-mFc Bound [2] [RU] | t½ [2] [min] | binding of the mixture of 100 nM hPD-1-mFc and 500 nM antibody [3] [nm] | also measured
1 | B1 | 128 | 100 | 83 | 23 | – | –
2 | B2 | 122 | 46 | 86 | 8 | – | –
3 | B3 | 115 | 63 | 84 | – | – | –
4 | B4 | – | – | – | – | 0 | –
5 | B5 | – | – | – | – | 0 | –
6 | B6 | – | – | – | – | -0.02 | –
7 | B7 | – | – | – | – | 0.23 | –
8 | B8 | – | – | – | – | 0.05 | –
9 | B9 | – | – | – | – | -0.01 | –
10 | B10 | 58 | 84 | 24 | – | – | –
11 | B11 | 93 | 188 | 88 | 91 | – | –
12 | B12 | – | – | – | – | 0.01 | –
13 | B13 | 78 | 116 | 40 | 19 | – | –
14 | B14 | – | – | – | – | 0 | –
15 | B15 | 75 | 38 | 28 | 2.4 | – | Kd [1]: 2.96 nM
16 | B16 | – | 200 | 98 | – | – | –
17 | B17 | 78 | 69 | 65 | 8 | – | –
18 | B18 | 17 | 4 | 6 | 1.1 | – | % Blocking [4]: -265%; binding of the mixture of 100 nM hPD-1-hFc and 500 nM antibody [4]: 365 RU
19 | B19 | 60 | 116 | 47 | 40 | – | –
20 | B20 | – | – | – | – | -0.01 | –
